From US12397037B2, “Methods and compositions for immunomodulation” (CHILDREN'S MEDICAL CENTER CORPORATION, priority 2014, dated 2025)

What was measured:
[1] = test system: C57BL/6 recipients of fully mismatched BALB/c cardiac allografts; assay: Fully MHC mismatched cardiac allograft survival (BALB/c into C57BL/6); assay type: in vivo, mice; conditions: for mean graft survival: untreated controls 6.5 days
Description: FIG. 2 depicts graft survival curves. Cardiac allografts (Balb/c) were transplanted into fully MHC mismatched recipients (C57BL/6). Unmanipulated recipients reject these allografts within 7-8 days.
FIG. 3 depicts graft survival curves. Cardiac allografts (Balb/c) were transplanted into fully MHC mismatched recipients (C57BL/6). Unmanipulated recipients reject these allografts within 7-8 days.
FIG. 4 depicts graft survival curves of C56BL6 recipient mice after transplantation with Balb/C donor hearts.
Described herein is the treatment of C57BL/6 recipients of fully mismatched BALB/c cardiac allografts with Sema3F.
Ba1b/C donor hearts were transplanted into C56BL6 mice.

[2] = test system: Jurkat T cells; assay: Western blot of pAkt (S473) in NRP-2-expressing Jurkat T cells; assay type: cell-based, human; conditions: 30 min
Protocol: FIG. 20 depicts the results of Western blots of NRP-2-expressing Jurkat T cells treated with increasing concentrations of SEMA3F for 30 min. Expression of pAkt (S473) was evaluated by Western blot.
In addition, as illustrated in FIG. 20 NRP-2-expressing Jurkat T cells were treated with increasing concentrations of SEMA3F for 30 min. and expression of pAkt (S473) was evaluated by Western blot. Expression is reduced following treatment with high concentrations of SEMA3F (>600 ng/ml)
Western blotting: Proteins within each sample were separated by SDS-PAGE and transferred to nitrocellulose membranes. The membranes were blocked with 4% skimmed milk in TBS-T (0.1% Tween 20 in tris-buffered saline [TBS]) for 30 minutes, followed by incubation with the primary antibody. After washing with TBS-T, membranes were incubated with the appropriate horseradish peroxidase-conjugated secondary antibody, and immunoreactivity was detected by using ECL detection reagents.

B1: SEMA3F: Human recombinant full-length His-Myc-tagged SEMA3F, secreted by transfected 293T cells and purified; class 3 semaphorin, NRP-2 ligand (protein, listed as Homo sapiens)
chain: MLVAGLLLWASLLTGAWPSFPTQDHLPATPRVRLSFKELKATGTAHFFNFLLNTTDYRILLKDEDHDRMYVGSKDYVLSLDLHDINREPLIIHWAASPQRIEECVLSGKDVNGECGNFVRLIQPWNRTHLYVCGTGAYNPMCTYVNRGRRAQATPWTQTQAVRGRGSRATDGALRPMPTAPRQDYIFYLEPERLESGKGKCPYDPKLDTASALINEELYAGVYIDFMGTDAAIFRTLGKQTAMRTDQYNSRWLNDPSFIHAELIPDSAERNDDKLYFFFRERSAEAPQSPAVYARIGRICLNDDGGHCCLVNKWSTFLKARLVCSVPGEDGIETHFDELQDVFVQQTQDVRNPVIYAVFTSSGSVFRGSAVCVYSMADIRMVFNGPFAHKEGPNYQWMPFSGKMPYPRPGTCPGGTFTPSMKSTKDYPDEVINFMRSHPLMYQAVYPLQRRPLVVRTGAPYRLTTIAVDQVDAADGRYEVLFLGTDRGTVQKVIVLPKDDQELEELMLEEVEVFKDPAPVKTMTISSKRQQLYVASAVGVTHLSLHRCQAYGAACADCCLARDPYCAWDGQACSRYTASSKRRSRRQDVRHGNPIRQCRGFNSNANKNAVESVQYGVAGSAAFLECQPRSPQATVKWLFQRDPGDRRREIRAEDRFLRTEQGLLLRALQLSDRGLYSCTATENNFKHVVTRVQLHVLGRDAVHAALFPPLSMSAPPPPGAGPPTPPYQELAQLLAQPEVGLIHQYCQGYWRHVPPSPREAPGAPRSPEPQDQKKPRNRRHHPPDT
modifications: His-Myc tag
notes: Human recombinant full-length His-Myc-tagged SEMA3F, secreted by transfected 293T cells and purified; class 3 semaphorin, NRP-2 ligand
[1]; NRP-2KO recipients
  rejection in NRP-2KO mice: can inhibit rejection
[1]; Sema3F administered via adenovirus, n=4 mice
  mean graft survival: > 22 days
[1]; Sema3F administered via i.p. injection, n=16 mice
  mean graft survival: 23.4 days
[1]; day 5 post transplantation, mice of FIG. 2 (adenovirus)
  CD3, CD4, CD8 and Treg populations by FACS: no differences are observed
[2]
  concentration of SEMA3F at which expression of pAkt (S473) is reduced: > 600 ng/ml
